Paper PMC9933118 (Proceedings of the National Academy of Sciences of the …, 2023)
Each block holds one binder with its values, some of them ahead of it.

Experiments:
[1] = biological target: GST-ZF456 (Homo sapiens, UniProt Q9H165); assay: pull-down
[2] = biological target: ZF456 of BCL11B (Homo sapiens (assumed, as for BCL11A), UniProt Q9C0K0); assay: AlphaScreen or HTRF
[3] = biological target: Twin-Strep-tagged ZF456 (Homo sapiens, UniProt Q9H165); assay: SPR
[4] = biological target: BCL11A ZF456 (residues 737 to 835) (Homo sapiens, UniProt Q9H165, 15N-labelled in the NMR experiment)
BCL11A ZF456 (residues 737 to 835), sequence (Q9H165 737-835): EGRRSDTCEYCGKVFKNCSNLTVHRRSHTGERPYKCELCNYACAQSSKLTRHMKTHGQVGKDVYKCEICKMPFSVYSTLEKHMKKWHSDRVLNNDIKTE

[5] = biological target: biotinylated ZF456 protein (BCL11A) (Homo sapiens, UniProt Q9H165, biotin (site not stated)); assay: AlphaScreen or HTRF
biotinylated ZF456 protein (BCL11A), sequence (Q9H165 737-835): as above

Twin-Strep-tagged ZF456, sequence (Q9H165 737-835): as above
ZF456 of BCL11B, sequence (Q9C0K0 whole entry, looked up, tested part not stated): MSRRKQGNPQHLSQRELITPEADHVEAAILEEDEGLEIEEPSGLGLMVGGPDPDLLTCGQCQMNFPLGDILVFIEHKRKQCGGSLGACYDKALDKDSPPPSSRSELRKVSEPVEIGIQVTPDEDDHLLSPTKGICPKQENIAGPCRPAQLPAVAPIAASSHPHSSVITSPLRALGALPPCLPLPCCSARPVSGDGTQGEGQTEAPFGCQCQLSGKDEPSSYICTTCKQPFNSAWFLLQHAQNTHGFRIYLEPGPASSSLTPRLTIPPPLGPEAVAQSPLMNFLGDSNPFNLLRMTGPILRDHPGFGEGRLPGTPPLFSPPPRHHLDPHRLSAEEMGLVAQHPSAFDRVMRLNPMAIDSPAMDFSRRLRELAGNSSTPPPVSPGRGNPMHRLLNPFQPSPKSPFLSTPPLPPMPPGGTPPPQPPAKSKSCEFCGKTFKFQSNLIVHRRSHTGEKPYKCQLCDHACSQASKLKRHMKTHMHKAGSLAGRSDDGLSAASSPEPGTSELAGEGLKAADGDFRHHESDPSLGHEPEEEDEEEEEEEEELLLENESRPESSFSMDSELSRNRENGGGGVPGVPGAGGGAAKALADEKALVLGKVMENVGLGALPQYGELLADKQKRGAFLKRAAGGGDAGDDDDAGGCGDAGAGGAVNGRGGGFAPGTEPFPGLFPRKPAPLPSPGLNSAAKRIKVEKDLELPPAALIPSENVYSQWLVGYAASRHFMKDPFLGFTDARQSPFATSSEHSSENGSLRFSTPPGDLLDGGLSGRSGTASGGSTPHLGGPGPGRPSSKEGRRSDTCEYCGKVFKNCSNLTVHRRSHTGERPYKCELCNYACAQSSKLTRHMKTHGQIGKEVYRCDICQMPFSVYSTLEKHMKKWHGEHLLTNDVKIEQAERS
GST-ZF456, sequence (Q9H165 737-835): as the sequence (Q9H165 737-835) above

B3: Nb6101(M45D) (VHH)
VHH: RVQLVESGGGLVQAGGSLRLSCAASGFIFDSYAMGWYRQAPGKEDELVAAITSSGSSTYYADSVKGRFTISRDNAKNTVYLQMNSLKPEDTAVYYCAALDYVIDGYWGQGTQVTVSS
Kd [3]: 157 ± 9 nM
fold improvement of binding affinity against Nb6101 [3]: ~6 fold

B4: Nb5344 (VHH)
VHH: SGGGLVQAGDSLRLSCAASGSTFSGYAMGWYRQAPGKERELVAAITSSGASTYYADSVRGRFTISRDNAKNTVYLQMNSLKPEDTAVYYCAALDEGYLDYDSWGQGTQVTVSS
Kd [4]: 3420 ± 80 nM

B5: Nb5344(N74D) (VHH)
VHH: SGGGLVQAGDSLRLSCAASGSTFSGYAMGWYRQAPGKERELVAAITSSGASTYYADSVRGRFTISRDDAKNTVYLQMNSLKPEDTAVYYCAALDEGYLDYDSWGQGTQVTVSS
Kd [4]: 1200 ± 50 nM

B6: Nb6101-14 (VHH)
VHH: RVQLVESGGGLVQAGGSLRLSCAADGFDFSSYAMGWYRQAPGYEDELVAAITASGSYTYYSDSVKGRFTISRDNAKNTVYLQMNSLKPEDTAVYYCAALSYVAEGYWGQGTQVTVSS
Kd [5]: 26.7 ± 0.7 nM

B9: Nb6101-19 (VHH)
VHH: RVQLVESGGGLVQAGGSLRLSCAADGFDFKSYAMGWYRQAPGREDELVAAITASGDYTYYADSVKGRFTISRDNAKNTVYLQMNSLKPDDTAVYYCAALSYVAEGYWGQGTQVTVSS
Kd [5]: 21.9 ± 0.4 nM

The next lines start with the values.

binding result [1]: binds
B1: Nb61 (VHH)
VHH: QVQLVESGGGLVQAGGSLRLSCAASGFIFDSYAMGWYRQAPGKERELVAAITSSGSSTYYADSVKGRFTISRDNAKNTVYLQMNSLKPEDTAVYYCAALDYVIDGYWGQGTQVTVSS

binding result [2]: no binding
B2: Nb6101 (VHH)
VHH: RVQLVESGGGLVQAGGSLRLSCAASGFIFDSYAMGWYRQAPGKEMELVAAITSSGSSTYYADSVKGRFTISRDNAKNTVYLQMNSLKPEDTAVYYCAALDYVIDGYWGQGTQVTVSS

Kd [5]: 54.6 ± 0.9 nM
B7: Nb6101-22 (VHH)
VHH: RMQLVESGGGLVQAGGSLRLSCAADGFDFSSYAMGWYRQAPGREDELVAAITASGSYTYYSDSVKGRFTISRDNAKNTVYLQMNSLKPDDTAVYYCAALSYVAEGYWGQGTQVTVSS

Kd [5]: 77.2 ± 0.5 nM
B8: Nb6101-20 (VHH)
VHH: RVQLVESGGGLVQAGGSLRLSCAADGFDFKSYAMGWYRQAPGYEDELVAAITASGSYTYYSDSVKGRFTISRDNAKNTVYLQMNSLKPEDTAVYYCAALSYVAEGYWGQGTQVTVSS
